Consider 15 molecules from article PMC3046295 (Journal of autoimmunity, 2011).

Read-outs that look alike come from different tables or passages of the source. Residues, ends and D or L forms follow the SMILES beside them. No end group written: not given here.

Assay [1] concerns the target HLA-DR0403 (DRA1*0101/DRB1*0403), soluble recombinant (human). Briefly: ELISA. Background: In an ELISA, binding on a coated surface is turned into a signal by an enzyme label.
Another assay deals with DR0403 (Homo sapiens, UniProt P01903+P01911, A100R/A103E/A169T/F76Y/I96L/K127E/L162R/M171V/N62H/P40V/Q125Y/R42H/S133A/S149N/S66Y/V209L/W38E). In words: 16-hour direct binding assay of biotinylated reference peptide, DR0403.
Assay [2] concerns the target T1, HLA-DR0401 (Homo sapiens, UniProt P01903+P01911, A100K/A169T/F76Y/I96L/K127E/L162R/M171V/N62H/P40V/Q125Y/R42H/S133A/S149N/S66Y/V115G/V209L/W38E). Briefly: biochemical. The class given is binding.
Assay [3] has as its target T2, HLA-DR0403 (Homo sapiens, UniProt P01903+P01911, A100R/A103E/A169T/F76Y/I96L/K127E/L162R/M171V/N62H/P40V/Q125Y/R42H/S133A/S149N/S66Y/V209L/W38E). In words: biochemical. The class given is binding.
For another assay, the target named is HLA-DR0405 (Homo sapiens, UniProt P01903+P01911, A100R/A169T/D86S/F76Y/I96L/K127E/L162R/M171V/N62H/P40V/Q125Y/R42H/S133A/S149N/S66Y/V115G/V209L/W38E). In words: Indirect. As to conditions: read-out: IC50 (uM) 0405; pH 5.4. It counts as binding.
Assay [4] addresses T1, HLA-DR0401. Briefly: Kinetic analysis. The class given is binding. As to conditions: pH 5.4, read-out: Kd 0401 (dissociation rate constant).
Assay [5] concerns the target T2, HLA-DR0403. Briefly: Kinetic analysis. It counts as binding. The following applies: pH 5.4, read-out: Kd 0403 (dissociation rate constant).
The target in assay [6] is HLA-DR0403 (DRA1*0101/DRB1*0403), soluble recombinant (human). In words: ELISA. The source holds these as a separate data set.
The target of assay [7] is HLA-DR0401 (DRA1*0101/DRB1*0401), soluble recombinant (human). In words: ELISA.

Consider “biotinylated influenza hemagglutinin derived peptide HA306”, for which, in assay [1], the EC50 (usually the concentration giving half of the maximal effect) is above 15 µM.
In the case of NFIRMVISNPAAT [557I], at DR0403, the “ED50 to bind 0.05 µM DR0403” value is 0.01 µM.
As to `CC[C@H](C)[C@H](NC(=O)[C@@H](NC(=O)[C@@H]1CCCN1C(=O)[C@H](C)NC(=O)[C@@H](N)C(C)C)C(C)C)C(=O)N[C@@H](CCCCN)C(=O)N[C@@H](C)C(=O)N[C@@H](CCCNC(=N)N)C(=O)N[C@@H](CCSC)C(=O)N[C@@H](CCSC)C(=O)N[C@@H](CCC(=O)O)C(=O)N[C@@H](Cc1ccc(O)cc1)C(=O)NCC(=O)N[C@H](C(=O)N[C@H](C(=O)N[C@@H](CCSC)C(=O)N[C@H](C(=O)N[C@@H](CO)C(=O)N[C@@H](Cc1ccc(O)cc1)C(=O)N[C@@H](CCC(N)=O)C(=O)O)C(C)C)[C@@H](C)O)[C@@H](C)O` [GAD65p67] (H-VAPVIKARMMEYGTTMVSYQ-OH), the figures for the IC50 against HLA-DR0401 [2], on HLA-DR0403 [3] and on HLA-DR0405 were 640 nM, 1610 nM and above 10 µM, respectively. In addition, the koff at HLA-DR0401 [4] was 0.000149 s⁻¹; at HLA-DR0403 [5], 7.67e-05 s⁻¹.
Regarding `CC(C)C[C@H](NC(=O)[C@H](CC(C)C)NC(=O)[C@@H]1CCCN1C(=O)[C@H](CC(=O)O)NC(=O)[C@H](Cc1ccccc1)NC(=O)[C@H](C)NC(=O)CNC(=O)[C@H](Cc1ccc(O)cc1)NC(=O)[C@@H](NC(=O)[C@@H](NC(=O)[C@@H](NC(=O)CNC(=O)[C@H](C)NC(=O)[C@@H](NC(=O)[C@H](C)NC(=O)[C@H](CO)NC(=O)[C@@H](NC(=O)[C@H](CC(C)C)NC(=O)[C@H](Cc1ccccc1)NC(=O)[C@@H]1CCCN1)C(C)C)[C@@H](C)O)[C@@H](C)O)[C@@H](C)O)C(C)C)C(=O)O` [GAD65p42] (H-PFLVSATAGTTVYGAFDPLL-OH), the values for the IC50 at HLA-DR0401 [2], on HLA-DR0403 [3] and at HLA-DR0405 were 2070 nM, 1270 nM and above 10 µM, respectively. For the same molecule, the koff at HLA-DR0401 [4] is 5.42e-05 s⁻¹; on HLA-DR0403 [5], 2.02e-05 s⁻¹.
For the molecule YAMMIARFKMFPEVKEKGMA [GAD65p32], the IC50 (usually the concentration that gives 50% inhibition) in assay [6] was determined as 10000 nM.
Consider PFLVSATAGTTVYGAFDPLL (not fully specified) [biotinylated GAD65p42], for which, in [7], the koff is 5.42e-05 s⁻¹ and the t1/2 turned out to be 3.6 min. For the same molecule, in assay [6], the koff stood at 2.02e-05 s⁻¹ and the t1/2 amounted to 0.16 h.
With CFWYIPPSLRTLEDNEERMS [GAD65p64], in assay [6], the IC50 was 1000 nM.
On to GAGSLQPLALEGSLQKRGIV [preproinsulin p10], for which, in assay [7], the IC50 worked out at 8.75 µM.
Turning to YAIKTGHPRYFNQLSTGLDM [GAD65p22], the IC50 in assay [6] came out at 10000 nM.
As to RGIVEQCCTSICSLYQLENY [preproinsulin p12], the IC50 in assay [7] worked out at 0.22 µM; in assay [6], 1890 nM.
Turning to VAPVIKARMMEYGTTMVSYQ (not fully specified) [biotinylated GAD65p67], in assay [7], the koff was found to be 0.000149 s⁻¹ and the t1/2 worked out at 77.4 min. In assay [6], the koff was 7.67e-05 s⁻¹ and the t1/2 came out at 2.51 h.
Take NFIRMVISNPAAT (not fully specified) [biotinylated GAD65-557I]: in assay [6], the EC50 worked out at 10 nM.
For the molecule CACDQKPCSCSKVDVNYAFL [GAD65p10], the IC50 in assay [6] worked out at 3550 nM.
As to TSICSLYQLENYCN [preproinsulin p13], in assay [6], the IC50 is 470 nM.
For the molecule YDLSYDTGDKALQCGRHVDV [GAD65p55], the IC50 in assay [7] was determined as 10 µM.
